For assay [1], the target named is IgG of IgG Sepharose 6 Fast Flow resin (GE Healthcare). Nature of the assay: batch binding of 293F conditioned media to IgG Sepharose, Western blot quantitation, n=2.
Assay [2] shares this target. Nature of the assay: IgG-Sepharose column, 24 h CHO conditioned media, Western blot. For orientation: A western blot detects proteins with antibodies after separation by electrophoresis.

B1: FcγRIIA/RIA-CH6 (soluble hybrid receptor: first Ig domain of FcγRIIA followed by second and third Ig domains of FcγRIA, C-terminal six His tag) (receptor)
chain: AAPPKAVLKLEPPWINVLQEDSVTLTCQGARSPESDSIQWFHNGNLIPTHTQPSYRFKANNNDSGEYTCQTGQTSLSDPVHLTVLSEWLLLQVSSRVFTEGEPLALRCHAWKDKLVYNVLYYRNGKAFKFFHWNSNLTILKTNISHNGTYHCSGMGKHRYTSAGISVTVKELFPAPVLNASVTSPLLEGNLVTLSCETKLLLQRPGLQLYFSFYMGSKTLRGRNTSSEYQILTARREDSGLYWCEAATEDGNVLKRSPELELQVLGGSGGHHHHHH
In assay [1], B1 came in with a percent of total expressed in IgG Sepharose flow-through (aggregate amount) of 14.2% and a percent of total expressed recovered from IgG resin of 40%.

B2: FcγRIIIA/RIA-CH6 (soluble hybrid receptor: first Ig domain of FcγRIIIA followed by second and third Ig domains of FcγRIA, C-terminal six His tag) (receptor)
chain: EDLPKAVVFLEPQWYRVLEKDSVTLKCQGAYSPEDNSTQWFHNESLISSQASSYFIDAATVDDSGEYRCQTNLSTLSDPVQLEVHIGWLLLQVSSRVFTEGEPLALRCHAWKDKLVYNVLYYRNGKAFKFFHWNSNLTILKTNISHNGTYHCSGMGKHRYTSAGISVTVKELFPAPVLNASVTSPLLEGNLVTLSCETKLLLQRPGLQLYFSFYMGSKTLRGRNTSSEYQILTARREDSGLYWCEAATEDGNVLKRSPELELQVLGGSGGHHHHHH
In assay [1], B2 gave a percent of total expressed in IgG Sepharose flow-through (aggregate amount) of 36% and a percent of total expressed recovered from IgG resin of 82%. In addition, in assay [2], the percent of total applied bound to IgG-Sepharose turned out to be 53% and the percent of total applied in the wash (unbound) was 47%.

The values above are taken from patent publication US20110217291A1.
